According to patent publication US20180094055A1 (Amgen, published 2018):

T1: human pituitary adenylate cyclase-activating polypeptide type I receptor, endogenously expressed on SH-SY-5Y … (human, UniProt P41586 21-468)
T1 sequence (looked up): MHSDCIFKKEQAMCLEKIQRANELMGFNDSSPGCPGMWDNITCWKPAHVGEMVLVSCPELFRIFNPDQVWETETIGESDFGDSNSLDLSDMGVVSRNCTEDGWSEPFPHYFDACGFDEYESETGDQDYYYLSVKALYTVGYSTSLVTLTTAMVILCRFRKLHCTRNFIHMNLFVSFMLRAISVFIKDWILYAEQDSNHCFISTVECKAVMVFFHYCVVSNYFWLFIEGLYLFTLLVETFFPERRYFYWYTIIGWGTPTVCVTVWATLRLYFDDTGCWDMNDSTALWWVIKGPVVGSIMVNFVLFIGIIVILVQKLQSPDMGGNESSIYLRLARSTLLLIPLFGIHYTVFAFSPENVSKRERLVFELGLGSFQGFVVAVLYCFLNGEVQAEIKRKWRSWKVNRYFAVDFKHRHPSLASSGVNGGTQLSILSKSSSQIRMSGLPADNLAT

T2: human PAC1 (form used for the Kd determination not stated) (human, UniProt P41586 21-468, limits assumed)
T2 construct: also called hPAC1
T2 sequence (looked up): T1 sequence (looked up)

B1: Anti-hPAC1 antibody W (antibody, human IgG2, kappa, V domains shown)
VH: QVQLQESGPGLVKPSQTLSLTCTVSGGSISSGGYYWSWIRQHPGKGLEWIGYIYYSGNTYYNPSLKSRVTISGDTSKNQFSLKLRSVTAADTAVYYCTRGGAARGMDVWGQGTTVTVSS
VL: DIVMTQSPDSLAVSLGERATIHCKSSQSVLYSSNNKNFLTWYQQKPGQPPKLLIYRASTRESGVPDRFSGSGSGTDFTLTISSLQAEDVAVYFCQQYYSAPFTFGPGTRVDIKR
notes: also called Ab ID W
B2: Anti-hPAC1 antibody L (antibody, human IgG2, kappa, V domains shown)
VH: QVQLVESGGGVVQPGRSLRLSCAASGFTFSRYAMHWVRQASGKGLEWVAVISYDGSNKYYADSVKGRFTISRDNSKNTLYLLMSSLRAEDTAVFYCARGYDILTGYPDYWGQGTLVTVSS
VL: DIQLTQSPSFLSASVGDRVTITCRASQSIGRSLHWYQQKPGKAPKLLFKYASQSLSGVPSRFSGSGSGTEFTLTISSLQPEDFATYYCHQSSRLPFTFGPGTKVDIKR
notes: also called Ab ID L

How the values were obtained:
[1] = target: T1, human pituitary adenylate …; assay: cell-based or functional assay
[2] = target: T2, human PAC1 (form used for the Kd …); assay: method not described (Table 8, 'Kd (nM)')

Binder	Antagonist IC50 (nM), PAC1 mediated cAMP assay (LANCE), PACAP-38 1 nM stimulation [1] [nM]	Kd [2] [nM]
B1	28	0.189
B2	4	0.024
